Laboratory results as given in patent US20180319842A1 (TUFTS MEDICAL CENTER, published 2018).
Groups on a side chain read outwards from the residue. No end group written: not given here. *: point of attachment. PEG8 = NCCOCCOCCOCCOCCOCCOCCOCCOCCC(=O)O; Palmitoyl = CCCCCCCCCCCCCCCC(=O)*

Legend:
Assay in all cases: cell-based or functional assay
[1] = target: T1, Mas-related G protein-coupled receptor X1 (MrgprX1), wild type (human, UniProt Q96LB2 1-322)
[2] = target: T1, Mas-related G protein-coupled receptor …; remark: listed apart in the source
MrgprX1 R131S variant = MrgprX1 R131S variant (human, UniProt Q96LB2 1-322)
Chain of MrgprX1 R131S variant (Q96LB2 whole entry R131S): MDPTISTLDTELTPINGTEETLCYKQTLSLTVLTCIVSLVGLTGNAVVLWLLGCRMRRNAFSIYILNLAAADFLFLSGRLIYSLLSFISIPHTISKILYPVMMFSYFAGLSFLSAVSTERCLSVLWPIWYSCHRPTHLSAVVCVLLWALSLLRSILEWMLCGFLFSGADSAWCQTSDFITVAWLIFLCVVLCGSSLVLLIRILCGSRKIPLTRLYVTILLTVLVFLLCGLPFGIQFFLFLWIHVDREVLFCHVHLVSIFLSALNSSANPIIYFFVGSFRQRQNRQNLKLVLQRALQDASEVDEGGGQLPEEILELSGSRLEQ

MrgprX1 F273L variant = MrgprX1 F273L variant (human, UniProt Q96LB2 1-322)
Chain of MrgprX1 F273L variant (Q96LB2 whole entry F273L): as the sequence (Q96LB2 whole entry R131S) above, with S131R, F273L counted along it

MrgprX1 R55L variant = MrgprX1 R55L variant (human, UniProt Q96LB2 1-322)
Chain of MrgprX1 R55L variant (Q96LB2 whole entry R55L): as the sequence (Q96LB2 whole entry R131S) above, with R55L, S131R counted along it

MrgprX1 A46T variant = MrgprX1 A46T variant (human, UniProt Q96LB2 1-322)
Chain of MrgprX1 A46T variant (Q96LB2 whole entry A46T): as the sequence (Q96LB2 whole entry R131S) above, with A46T, S131R counted along it

MrgprX1 I36V variant = MrgprX1 I36V variant (human, UniProt Q96LB2 1-322)
Chain of MrgprX1 I36V variant (Q96LB2 whole entry I36V): as the sequence (Q96LB2 whole entry R131S) above, with I36V, S131R counted along it

MrgprX1 H137R variant = MrgprX1 H137R variant (human, UniProt Q96LB2 1-322)
Chain of MrgprX1 H137R variant (Q96LB2 whole entry H137R): as the sequence (Q96LB2 whole entry R131S) above, with S131R, H137R counted along it

MrgprX1 H133R variant = MrgprX1 H133R variant (human, UniProt Q96LB2 1-322)
Chain of MrgprX1 H133R variant (Q96LB2 whole entry H133R): as the sequence (Q96LB2 whole entry R131S) above, with S131R, H133R counted along it

T1 sequence (Q96LB2 whole entry): as the sequence (Q96LB2 whole entry R131S) above, with S131R counted along it

B1: Lipidated BAM8-22 (peptide)
peptide: VGRPEWWMDYQKRYGGGK([PEG8-Palmitoyl])
[1]
  potency relative to soluble BAM8-22, SRE-luciferase reporter, HEK293 cells: ~100 fold higher potency than soluble BAM8-22
[2]
  Curve Maximum, SRE-luciferase reporter, HEK293 cells: 101 % of WT signal at 10^-6 M lipidated BAM8-22
  EC50 (nM), SRE-luciferase reporter, HEK293 cells: 12 nM
  pEC50, SRE-luciferase reporter, HEK293 cells: 7.92
MrgprX1 R131S variant
  Curve Maximum, SRE-luciferase reporter, HEK293 cells: 40.4 % of WT signal at 10^-6 M lipidated BAM8-22
  EC50 (nM), SRE-luciferase reporter, HEK293 cells: 57.1 nM
  pEC50, SRE-luciferase reporter, HEK293 cells: 7.24
MrgprX1 F273L variant
  Curve Maximum, SRE-luciferase reporter, HEK293 cells: 95.9 % of WT signal at 10^-6 M lipidated BAM8-22
  EC50 (nM), SRE-luciferase reporter, HEK293 cells: 12.1 nM
  pEC50, SRE-luciferase reporter, HEK293 cells: 7.92
MrgprX1 R55L variant
  Curve Maximum, SRE-luciferase reporter, HEK293 cells: 108 % of WT signal at 10^-6 M lipidated BAM8-22
  EC50 (nM), SRE-luciferase reporter, HEK293 cells: 10.2 nM
  pEC50, SRE-luciferase reporter, HEK293 cells: 7.99
MrgprX1 A46T variant
  Curve Maximum, SRE-luciferase reporter, HEK293 cells: 112 % of WT signal at 10^-6 M lipidated BAM8-22
  EC50 (nM), SRE-luciferase reporter, HEK293 cells: 9.5 nM
  pEC50, SRE-luciferase reporter, HEK293 cells: 8.02
MrgprX1 I36V variant
  Curve Maximum, SRE-luciferase reporter, HEK293 cells: 109 % of WT signal at 10^-6 M lipidated BAM8-22
  EC50 (nM), SRE-luciferase reporter, HEK293 cells: 9.3 nM
  pEC50, SRE-luciferase reporter, HEK293 cells: 8.03
MrgprX1 H137R variant
  Curve Maximum, SRE-luciferase reporter, HEK293 cells: 109 % of WT signal at 10^-6 M lipidated BAM8-22
  EC50 (nM), SRE-luciferase reporter, HEK293 cells: 7.9 nM
  pEC50, SRE-luciferase reporter, HEK293 cells: 8.1
MrgprX1 H133R variant
  Curve Maximum, SRE-luciferase reporter, HEK293 cells: 110 % of WT signal at 10^-6 M lipidated BAM8-22
  EC50 (nM), SRE-luciferase reporter, HEK293 cells: 8.6 nM
  pEC50, SRE-luciferase reporter, HEK293 cells: 8.06
